± gives the standard deviation of the averaged measurements.
Assay: total protein half-life in vivo (active degradation + dilution); higher = more stable protein
[1] = E. coli NCM3722 delta-clpP delta-lon delta-hslV, growth: N-lim chemostat, doubling time 6 h
[2] = E. coli NCM3722 delta-clpP, growth: N-lim chemostat, doubling time 6 h
[3] = E. coli NCM3722 delta-hslV, growth: N-lim chemostat, doubling time 6 h
[4] = E. coli NCM3722 delta-lon, growth: N-lim chemostat, doubling time 6 h
[5] = E. coli NCM3722 delta-smpB, growth: N-lim chemostat, doubling time 6 h
[6] = wild type E. coli NCM3722, growth: C-lim chemostat, doubling time 6 h
[7] = wild type E. coli NCM3722, growth: C-lim chemostat, doubling time 12 h
[8] = wild type E. coli NCM3722, growth: N-lim chemostat, doubling time 6 h
[9] = wild type E. coli NCM3722, growth: P-lim chemostat, doubling time 6 h
[10] = wild type E. coli NCM3722, growth: P-lim chemostat, doubling time 12 h
[11] = wild type E. coli NCM3722, growth: C-lim chemostat, doubling time 3 h
[12] = wild type E. coli NCM3722, growth: N-lim chemostat, doubling time 12 h

Sequence	total protein half-life in vivo [1] [h]	total protein half-life in vivo [2] [h]	total protein half-life in vivo [3] [h]	total protein half-life in vivo [4] [h]	total protein half-life in vivo [5] [h]	total protein half-life in vivo [6] [h]	total protein half-life in vivo [7] [h]	total protein half-life in vivo [8] [h]	total protein half-life in vivo [9] [h]	total protein half-life in vivo [10] [h]	total protein half-life in vivo [11] [h]	total protein half-life in vivo [12] [h]
MSHQHTTQTSGQGMLERVFKLREHGTTARTEVIAGFTTFLTMVYIVFVNPQILGVAGMDTSAVFVTTCLIAAFGSIMMGLFANLPVALAPAMGLNAFFAFVVVQAMGLPWQVGMGAIFWGAIGLLLLTIFRVRYWMIANIPVSLRVGITSGIGLFIGMMGLKNAGVIVANPETLVSIGNLTSHSVLLGILGFFIIAILASRNIHAAVLVSIVVTTLLGWMLGDVHYNGIVSAPPSVMTVVGHVDLAGSFNLGLAGVIFSFMLVNLFDSSGTLIGVTDKAGLADEKGKFPRMKQALYVDSISSVTGSFIGTSSVTAYIESSSGVSVGGRTGLTAVVVGLLFLLVIFLSPLAGMVPGYAAAGALIYVGVLMTSSLARVNWQDLTESVPAFITAVMMPFSFSITEGIALGFISYCVMKIGTGRLRDLSPCVIIVALLFILKIVFIDAH	6.67 ± 0.81	6.107 ± 0.041	5.86 ± 0.14	5.93	5.32 ± 0.85	5.56 ± 0.18	12.7 ± 2.2	6.02 ± 0.079	5.99 ± 0.52	11.2 ± 0.99		
MSHQLTFADSEFSSKRRQTRKEIFLSRMEQILPWQNMVEVIEPFYPKAGNGRRPYPLETMLRIHCMQHWYNLSDGAMEDALYEIASMRLFARLSLDSALPDRTTIMNFRHLLEQHQLARQLFKTINRWLAEAGVMMTQGTLVDATIIEAPSSTKNKEQQRDPEMHQTKKGNQWHFGMKAHIGVDAKSGLTHSLVTTAANEHDLNQLGNLLHGEEQFVSADAGYQGAPQREELAEVDVDWLIAERPGKVRTLKQHPRKNKTAINIEYMKASIRARVEHPFRIIKRQFGFVKARYKGLLKNDNQLAMLFTLANLFRADQMIRQWERSH [P0CE51]	3.8 ± 0.34				0.495	0.676	3.18	0.532	0.426	0.648	> 4	
MSHSSAPERATGAVITDWRPEDPAFWQQRGQRIASRNLWISVPCLLLAFCVWMLFSAVAVNLPKVGFNFTTDQLFMLTALPSVSGALLRVPYSFMVPIFGGRRWTAFSTGILIIPCVWLGFAVQDTSTPYSVFIIISLLCGFAGANFASSMANISFFFPKQKQGGALGLNGGLGNMGVSVMQLVAPLVVSLSIFAVFGSQGVKQPDGTELYLANASWIWVPFLAIFTIAAWFGMNDLATSKASIKEQLPVLKRGHLWIMSLLYLATFGSFIGFSAGFAMLSKTQFPDVQILQYAFFGPFIGALARSAGGALSDRLGGTRVTLVNFILMAIFSGLLFLTLPTDGQGGSFMAFFAVFLALFLTAGLGSGSTFQMISVIFRKLTMDRVKAEGGSDERAMREAATDTAAALGFISAIGAIGGFFIPKAFGSSLALTGSPVGAMKVFLIFYIACVVITWAVYGRHSKK												8.46
MSHVELQPGFDFQQAGKEVLAIERECLAELDQYINQNFTLACEKMFWCKGKVVVMGMGKSGHIGRKMAATFASTGTPSFFVHPGEAAHGDLGMVTPQDVVIAISNSGESSEITALIPVLKRLHVPLICITGRPESSMARAADVHLCVKVAKEACPLGLAPTSSTTATLVMGDALAVALLKARGFTAEDFALSHPGGALGRKLLLRVNDIMHTGDEIPHVKKTASLRDALLEVTRKNLGMTVICDDNMMIEGIFTDGDLRRVFDMGVDVRQLSIADVMTPGGIRVRPGILAVEALNLMQSRHITSVMVADGDHLLGVLHMHDLLRAGVV		4.95 ± 1.9	4.36 ± 0.2	4.95 ± 0.44	4.2 ± 0.2	5.27 ± 0.15	10.3 ± 2.3	4.29 ± 0.37	5.827 ± 0.055	11.6 ± 0.54	2.92 ± 0.13	7.36 ± 0.41
MSIISTKYLLQDAQANGYAVPAFNIHNAETIQAILEVCSEMRSPVILAGTPGTFKHIALEEIYALCSAYSTTYNMPLALHLDHHESLDDIRRKVHAGVRSAMIDGSHFPFAENVKLVKSVVDFCHSQDCSVEAELGRLGGVEDDMSVDAESAFLTDPQEAKRFVELTGVDSLAVAIGTAHGLYSKTPKIDFQRLAEIREVVDVPLVLHGASDVPDEFVRRTIELGVTKVNVATELKIAFAGAVKAWFAENPQGNDPRYYMRVGMDAMKEVVRNKINVCGSANRISA [P0AB74]	> 8					3.2	4.72				2.35 ± 1.1	
